Target: T1, human CD131 (human, UniProt P32927 17-897)
T1 sequence: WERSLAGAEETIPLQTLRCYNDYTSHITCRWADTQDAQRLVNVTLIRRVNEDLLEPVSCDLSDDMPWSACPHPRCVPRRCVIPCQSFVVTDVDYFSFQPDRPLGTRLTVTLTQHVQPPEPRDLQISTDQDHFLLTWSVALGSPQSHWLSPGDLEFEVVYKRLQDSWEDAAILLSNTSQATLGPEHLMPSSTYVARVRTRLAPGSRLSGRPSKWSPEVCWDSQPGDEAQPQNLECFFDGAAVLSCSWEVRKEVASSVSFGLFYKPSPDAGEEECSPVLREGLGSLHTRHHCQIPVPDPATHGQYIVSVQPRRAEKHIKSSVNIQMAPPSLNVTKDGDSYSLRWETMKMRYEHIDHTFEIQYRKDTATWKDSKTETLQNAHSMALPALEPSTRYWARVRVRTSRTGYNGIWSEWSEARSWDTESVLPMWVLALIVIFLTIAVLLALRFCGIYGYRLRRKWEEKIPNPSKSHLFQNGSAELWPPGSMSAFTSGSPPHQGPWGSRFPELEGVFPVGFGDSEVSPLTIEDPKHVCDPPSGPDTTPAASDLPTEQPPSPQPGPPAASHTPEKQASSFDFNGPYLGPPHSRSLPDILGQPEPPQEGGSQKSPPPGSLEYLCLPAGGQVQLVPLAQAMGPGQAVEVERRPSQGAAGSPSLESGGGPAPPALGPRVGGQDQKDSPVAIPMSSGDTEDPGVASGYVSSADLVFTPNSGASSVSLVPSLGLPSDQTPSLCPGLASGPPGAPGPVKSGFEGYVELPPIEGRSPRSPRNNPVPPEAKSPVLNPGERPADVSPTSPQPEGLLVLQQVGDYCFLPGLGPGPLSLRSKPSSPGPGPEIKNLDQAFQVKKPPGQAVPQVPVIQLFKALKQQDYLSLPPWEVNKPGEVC
Experiment: cell-based or functional assay

Row | Binder | IC50 GM-CSF, TF-1 proliferation [nM] | pStat5 IC50 GM-CSF, TF-1 bla reporter [nM]
1 | 9A2-VR27 (antibody, V domains shown) VH: EVQLLESGGGLVQPGGSLRLSCAASGFTFTHYRVHWVRQAPGKGLEWVSSIRSSGGFTYYADSVKGRFTISRDNSKNTLYLQMNSLRAEDTAVYYCARFYDSFFDIWGQGTMVTVSS VL: DIQMTQSPSSVSASVGDRVTITCRASQGISSWLAWYQQKPGKAPKLLIYAASSLQSGVPSRFSGSGSGTDFTLTISSLQPEDFATYYCQQANSFPITFGQGTRLEIKR | 4.9 | 8.5
2 | 9A2-VR34 (antibody, V domains shown) VH: EVQLLESGGGLVQPGGSLRLSCAASGFTFSHYHMLWVRQAPGKGLEWVSSISGSHFPTYYADSVKGRFTISRDNSKNTLYLQMNSLRAEDTAVYYCARFYDSFFDIWGQGTMVTVSS VL: DIQMTQSPSSVSASVGDRVTITCRASQGISSWLAWYQQKPGKAPKLLIYAASSLQSGVPSRFSGSGSGTDFTLTISSLQPEDFATYYCQQANSFPITFGQGTRLEIKR | 184 | –
3 | 9A2-VR41 (antibody, V domains shown) VH: EVQLLESGGGLVQPGGSLRLSCAASGFTFSHYHMLWVRQAPGKGLEWVSSINGKGWTTYYADSVKGRFTISRDNSKNTLYLQMNSLRAEDTAVYYCARFYDSFFDIWGQGTMVTVSS VL: DIQMTQSPSSVSASVGDRVTITCRASQGISSWLAWYQQKPGKAPKLLIYAASSLQSGVPSRFSGSGSGTDFTLTISSLQPEDFATYYCQQANSFPITFGQGTRLEIKR | 7 | –
4 | 9A2-VR38 (antibody, V domains shown) VH: EVQLLESGGGLVQPGGSLRLSCAASGFTFSHYHMLWVRQAPGKGLEWVSSINGMGATTYYADSVKGRFTISRDNSKNTLYLQMNSLRAEDTAVYYCARFYDSFFDIWGQGTMVTVSS VL: DIQMTQSPSSVSASVGDRVTITCRASQGISSWLAWYQQKPGKAPKLLIYAASSLQSGVPSRFSGSGSGTDFTLTISSLQPEDFATYYCQQANSFPITFGQGTRLEIKR | 5 | –
5 | 9A2-VR28 (antibody, V domains shown) VH: EVQLLESGGGLVQPGGSLRLSCAASGFTFVHYRVHWVRQAPGKGLEWVSSIRSSGGFTYYADSVKGRFTISRDNSKNTLYLQMNSLRAEDTAVYYCARFYDSFFDIWGQGTMVTVSS VL: DIQMTQSPSSVSASVGDRVTITCRASQGISSWLAWYQQKPGKAPKLLIYAASSLQSGVPSRFSGSGSGTDFTLTISSLQPEDFATYYCQQANSFPITFGQGTRLEIKR | 47.9 | –
6 | 9A2-VR43 (antibody, V domains shown) VH: EVQLLESGGGLVQPGGSLRLSCAASGFTFSHYHMLWVRQAPGKGLEWVSSIRSSGGFTYYADSVKGRFTISRDNSKNTLYLQMNSLRAEDTAVYYCARFYSDHFDIWGQGTMVTVSS VL: DIQMTQSPSSVSASVGDRVTITCRASQGISSWLAWYQQKPGKAPKLLIYAASSLQSGVPSRFSGSGSGTDFTLTISSLQPEDFATYYCQQANSFPITFGQGTRLEIKR | 53.7 | –
7 | 9A2-VR40 (antibody, V domains shown) VH: EVQLLESGGGLVQPGGSLRLSCAASGFTFSHYHMLWVRQAPGKGLEWVSSINGYGIQTYYADSVKGRFTISRDNSKNTLYLQMNSLRAEDTAVYYCARFYDSFFDIWGQGTMVTVSS VL: DIQMTQSPSSVSASVGDRVTITCRASQGISSWLAWYQQKPGKAPKLLIYAASSLQSGVPSRFSGSGSGTDFTLTISSLQPEDFATYYCQQANSFPITFGQGTRLEIKR | 5.7 | –
8 | 9A2-VR32 (antibody, V domains shown) VH: EVQLLESGGGLVQPGGSLRLSCAASGFTFSHYHMLWVRQAPGKGLEWVSSISGSVRSTYYADSVKGRFTISRDNSKNTLYLQMNSLRAEDTAVYYCARFYDSFFDIWGQGTMVTVSS VL: DIQMTQSPSSVSASVGDRVTITCRASQGISSWLAWYQQKPGKAPKLLIYAASSLQSGVPSRFSGSGSGTDFTLTISSLQPEDFATYYCQQANSFPITFGQGTRLEIKR | 31.2 | –
9 | 9A2-VR37 (antibody, V domains shown) VH: EVQLLESGGGLVQPGGSLRLSCAASGFTFSHYHMLWVRQAPGKGLEWVSSISGSMWSTYYADSVKGRFTISRDNSKNTLYLQMNSLRAEDTAVYYCARFYDSFFDIWGQGTMVTVSS VL: DIQMTQSPSSVSASVGDRVTITCRASQGISSWLAWYQQKPGKAPKLLIYAASSLQSGVPSRFSGSGSGTDFTLTISSLQPEDFATYYCQQANSFPITFGQGTRLEIKR | 48.1 | –
10 | 9A2-VR33 (antibody, V domains shown) VH: EVQLLESGGGLVQPGGSLRLSCAASGFTFSHYHMLWVRQAPGKGLEWVSSINGSGWTTYYADSVKGRFTISRDNSKNTLYLQMNSLRAEDTAVYYCARFYDSFFDIWGQGTMVTVSS VL: DIQMTQSPSSVSASVGDRVTITCRASQGISSWLAWYQQKPGKAPKLLIYAASSLQSGVPSRFSGSGSGTDFTLTISSLQPEDFATYYCQQANSFPITFGQGTRLEIKR | 602 | –
11 | 9A2-VR45 (antibody, V domains shown) VH: EVQLLESGGGLVQPGGSLRLSCAASGFTFSHYHMLWVRQAPGKGLEWVSSIRSSGGFTYYADSVKGRFTISRDNSKNTLYLQMNSLRAEDTAVYYCARFYSDNFDIWGQGTMVTVSS VL: DIQMTQSPSSVSASVGDRVTITCRASQGISSWLAWYQQKPGKAPKLLIYAASSLQSGVPSRFSGSGSGTDFTLTISSLQPEDFATYYCQQANSFPITFGQGTRLEIKR | 88.7 | –
12 | 9A2-VR31 (antibody, V domains shown) VH: EVQLLESGGGLVQPGGSLRLSCAASGFTFSHYHMLWVRQAPGKGLEWVSSISGAQWSTYYADSVKGRFTISRDNSKNTLYLQMNSLRAEDTAVYYCARFYDSFFDIWGQGTMVTVSS VL: DIQMTQSPSSVSASVGDRVTITCRASQGISSWLAWYQQKPGKAPKLLIYAASSLQSGVPSRFSGSGSGTDFTLTISSLQPEDFATYYCQQANSFPITFGQGTRLEIKR | 233 | –
13 | 9A2-VR35 (antibody, V domains shown) VH: EVQLLESGGGLVQPGGSLRLSCAASGFTFSHYHMLWVRQAPGKGLEWVSSINGFGRNTYYADSVKGRFTISRDNSKNTLYLQMNSLRAEDTAVYYCARFYDSFFDIWGQGTMVTVSS VL: DIQMTQSPSSVSASVGDRVTITCRASQGISSWLAWYQQKPGKAPKLLIYAASSLQSGVPSRFSGSGSGTDFTLTISSLQPEDFATYYCQQANSFPITFGQGTRLEIKR | 76 | –
14 | 9A2-VR44 (antibody, V domains shown) VH: EVQLLESGGGLVQPGGSLRLSCAASGFTFSHYHMLWVRQAPGKGLEWVSSIRSSGGFTYYADSVKGRFTISRDNSKNTLYLQMNSLRAEDTAVYYCARFYDSHFDIWGQGTMVTVSS VL: DIQMTQSPSSVSASVGDRVTITCRASQGISSWLAWYQQKPGKAPKLLIYAASSLQSGVPSRFSGSGSGTDFTLTISSLQPEDFATYYCQQANSFPITFGQGTRLEIKR | 36.4 | –
15 | 9A2-VR48 (antibody, V domains shown) VH: EVQLLESGGGLVQPGGSLRLSCAASGFTFSHYHMLWVRQAPGKGLEWVSSIRSSGGFTYYADSVKGRFTISRDNSKNTLYLQMNSLRAEDTAVYYCARFYSDHFKPWGQGTMVTVSS VL: DIQMTQSPSSVSASVGDRVTITCRASQGISSWLAWYQQKPGKAPKLLIYAASSLQSGVPSRFSGSGSGTDFTLTISSLQPEDFATYYCQQANSFPITFGQGTRLEIKR | 11.7 | –
16 | 9A2-VR42 (antibody, V domains shown) VH: EVQLLESGGGLVQPGGSLRLSCAASGFTFSHYHMLWVRQAPGKGLEWVSSIGGDIRQTYYADSVKGRFTISRDNSKNTLYLQMNSLRAEDTAVYYCARFYDSFFDIWGQGTMVTVSS VL: DIQMTQSPSSVSASVGDRVTITCRASQGISSWLAWYQQKPGKAPKLLIYAASSLQSGVPSRFSGSGSGTDFTLTISSLQPEDFATYYCQQANSFPITFGQGTRLEIKR | 54.7 | –
17 | 9A2-VR36 (antibody, V domains shown) VH: EVQLLESGGGLVQPGGSLRLSCAASGFTFSHYHMLWVRQAPGKGLEWVSSIGGDKRQTYYADSVKGRFTISRDNSKNTLYLQMNSLRAEDTAVYYCARFYDSFFDIWGQGTMVTVSS VL: DIQMTQSPSSVSASVGDRVTITCRASQGISSWLAWYQQKPGKAPKLLIYAASSLQSGVPSRFSGSGSGTDFTLTISSLQPEDFATYYCQQANSFPITFGQGTRLEIKR | 38.1 | –
18 | 9A2-VR47 (antibody, V domains shown) VH: EVQLLESGGGLVQPGGSLRLSCAASGFTFSHYHMLWVRQAPGKGLEWVSSIRSSGGFTYYADSVKGRFTISRDNSKNTLYLQMNSLRAEDTAVYYCARFYSDHFSPWGQGTMVTVSS VL: DIQMTQSPSSVSASVGDRVTITCRASQGISSWLAWYQQKPGKAPKLLIYAASSLQSGVPSRFSGSGSGTDFTLTISSLQPEDFATYYCQQANSFPITFGQGTRLEIKR | 27.2 | –
19 | 9A2-VR46 (antibody, V domains shown) VH: EVQLLESGGGLVQPGGSLRLSCAASGFTFSHYHMLWVRQAPGKGLEWVSSIRSSGGFTYYADSVKGRFTISRDNSKNTLYLQMNSLRAEDTAVYYCARFYSDHFREWGQGTMVTVSS VL: DIQMTQSPSSVSASVGDRVTITCRASQGISSWLAWYQQKPGKAPKLLIYAASSLQSGVPSRFSGSGSGTDFTLTISSLQPEDFATYYCQQANSFPITFGQGTRLEIKR | 23.4 | –
